In patent US20260056186A1 (JIANGSU HENGRUI PHARMACEUTICALS, published 2026):

Legend:
[1] = target: T1, APRIL (Acro Biosystems, Cat: APL-H52D1) (UniProt O75888 115-250, limits assumed); assay: ELISA, APRIL coated at 1 ug/mL, anti-human Fc-HRP, OD450
T1 construct: also called ARPIL
T1 sequence (looked up): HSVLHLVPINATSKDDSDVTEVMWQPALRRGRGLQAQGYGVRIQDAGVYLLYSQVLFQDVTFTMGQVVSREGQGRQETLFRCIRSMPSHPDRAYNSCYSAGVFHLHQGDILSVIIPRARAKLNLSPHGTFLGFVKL
Experimental: The capabilities of fusion proteins B606401, B637302, B746201, and B805201 to bind to BAFF and APRIL were assessed by ELISA as follows:
BAFF (PeproTech, Cat: 310-13) or ARPIL (Acro Biosystems, Cat: APL-H52D1) was diluted to 1 μg/mL with PBS, and a 96-well plate was coated with the dilution overnight at 4° C. The plate was washed with PBST and blocked with Blocking Buffer (PBST containing 1% BSA) at 37° C. for 1 h. The plate was tapped. The test antibodies were diluted with Blocking Buffer. Incubation was performed at 37° C. for 1.5 h. The plate was washed with PBST. An HRP-mouse anti-human Fc antibody (GenScript, Cat: A01854-200) was diluted with Blocking Buffer. Incubation was performed at 37° C. for 40 min. The plate was washed with PBST. 100 μL of TMB substrate solution (Biopanda, Cat: TMB-S-003) was added, and color development was performed at 37° C. for 3 min. 100 μL of ELISA stop solution (Solarbio, Cat: C1058) was added. OD450 was measured.

[2] = target: T2, recombinant human APRIL (R&D cat: 5860-AP-010/CF) (human, UniProt O75888 105-250, limits assumed); assay: cell-based or functional assay
T2 sequence (looked up): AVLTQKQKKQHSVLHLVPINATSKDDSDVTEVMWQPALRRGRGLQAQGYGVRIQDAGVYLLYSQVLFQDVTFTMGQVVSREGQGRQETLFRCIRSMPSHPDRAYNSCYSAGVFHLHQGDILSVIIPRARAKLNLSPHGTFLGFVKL

IFNAR1 [3] = target: T3, IFNAR1 (human, UniProt P17181 28-557); assay: cell-based or functional assay
T3 sequence (looked up): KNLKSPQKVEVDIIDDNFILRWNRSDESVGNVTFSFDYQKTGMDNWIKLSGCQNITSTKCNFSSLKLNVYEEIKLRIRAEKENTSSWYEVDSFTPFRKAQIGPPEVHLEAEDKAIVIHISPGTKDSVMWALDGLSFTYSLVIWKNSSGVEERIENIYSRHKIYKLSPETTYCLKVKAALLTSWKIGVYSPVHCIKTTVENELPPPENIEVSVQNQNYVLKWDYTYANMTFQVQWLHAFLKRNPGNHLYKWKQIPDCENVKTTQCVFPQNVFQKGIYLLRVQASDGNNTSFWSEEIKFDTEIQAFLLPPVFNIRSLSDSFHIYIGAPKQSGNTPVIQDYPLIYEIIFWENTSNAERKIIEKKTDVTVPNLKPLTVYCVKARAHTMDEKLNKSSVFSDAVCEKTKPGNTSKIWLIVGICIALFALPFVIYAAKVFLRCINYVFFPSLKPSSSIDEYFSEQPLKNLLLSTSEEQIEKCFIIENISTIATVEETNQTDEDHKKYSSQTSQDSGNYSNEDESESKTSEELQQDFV

IFNAR1 [4] = target: T3, IFNAR1; assay: cell-based or functional assay; remark: listed apart in the source
[5] = target: T4, recombinant human BAFF (R&D cat: 7537-BF-025/CF) (human, UniProt Q9Y275 134-285); assay: cell-based or functional assay
[6] = target: T2, recombinant human APRIL (R&D cat: …); assay: cell-based or functional assay; remark: listed apart in the source
[7] = target: T4, recombinant human BAFF (R&D cat: …); assay: cell-based or functional assay; remark: listed apart in the source
[8] = target: T5, BAFF (Sino biological, 10056-HNCH) (UniProt Q9Y275 134-285, biotinylated in the blocking ELISA (site not stated)); assay: ELISA, BAFF coated at 1 ug/mL, anti-human IgG-HRP
T5 construct: also called BLyS
Experimental: (§1) In addition, the BAFF binding activity of the constructed TACI-Fc fusion proteins was assessed, and the TACI-Fc fusion proteins' functional activity of blocking the binding of BAFF to BAFF-R was assessed (see Example 1 for the experimental method).
The BAFF binding activity of the TACI-Fc fusion proteins was assessed as follows: BAFF (Sino biological, 10056-HNCH) protein was diluted with a pH 7.4 PBS (BasalMedia, B320) buffer to 1 μg/mL, and the resulting dilution was added to a 96-well microplate (Corning, 3590) at 100 μL/well. The plate was incubated overnight at 4° C. After the liquid was discarded, 5% skim milk (BD, 232100), diluted with PBS, was added at 300 μL/well for blocking, and the plate was incubated at 37° C. for 2 h. After the blocking, the blocking solution was discarded, and the plate was washed 3 times with a PBST buffer (pH 7.4 PBS containing 0.10% tween-20). Serially diluted test antibody or fusion protein solutions were added at 100 μL/well, and the plate was incubated at 37° C. for 1 h. […] The plate was incubated at 37° C. for 1 h. After the plate was washed 3 times with PBST, the chromogenic substrate TMB (KPL, 5120-0077) was added at 100 μL/well. The plate was incubated at room temperature for 10-15 min, and 1 M H₂SO₄ was added at 50 μL/well to stop the reaction. The absorbance at 450 nm was measured using a microplate reader. Curves for the binding of the antibodies to the antigen were fitted using software, and EC₅₀ values were calculated.

[9] = target: T5, BAFF (Sino biological, 10056-HNCH); assay: competition ELISA: fusion protein pre-mixed with biotinylated BAFF, added to coated BAFF-R
Experimental: The above TACI-Fc fusion proteins' function of blocking the binding of BAFF to BAFF-R was further assessed as follows: The receptor protein was diluted with a pH 7.4 PBS (BasalMedia, B320) buffer to 2 μg/mL, and the resulting dilution was added to a 96-well microplate (Corning, 3590) at 100 μL/well. The plate was incubated overnight at 4° C. After the liquid was discarded, 1% Casein blocking solution (Thermo, 37528) was added at 200 μL/well for blocking, and the plate was incubated at 37° C. for 2 h. After the blocking, the blocking solution was discarded, and the plate was washed 3 times with a PBST buffer (pH 7.4 PBS containing 0.1% tween-20) and set aside for later use. A biotinylated ligand protein at a fixed concentration was mixed with a serially diluted antibody or fusion protein, and the mixture was pre-incubated at 37° C. for 30 min and then added to the blocked microplate. The plate was incubated at 37° C. for 1.5 h. After the incubation, the plate was washed 3 times with PBST, and streptavidin-HRP (Invitrogen, 434323, diluted in a 1:4000 ratio) was added at 100 μL/well. The plate was incubated at 37° C. for 1 h. The supernatant was removed. After the plate was washed 3 times with PBST, the chromogenic substrate TMB (KPL, 5120-0077) was added at 100 μL/well. The plate was incubated at room temperature for 10-15 min, and 1 M H₂SO₄ was added at 50 μL/well to stop the reaction. The absorbance at 450 nm was measured using a microplate reader. Curves for the inhibition of the binding of the ligand to the receptor were fitted using software, and IC₅₀ values were calculated. The sources of the ligand and the receptor protein used are as follows: BAFF (Sino biological, 10056-HNCH) and BAFF-R (Sino biological, 16079-H02H).
as §1

T5 sequence (Q9Y275 134-285 limits assumed): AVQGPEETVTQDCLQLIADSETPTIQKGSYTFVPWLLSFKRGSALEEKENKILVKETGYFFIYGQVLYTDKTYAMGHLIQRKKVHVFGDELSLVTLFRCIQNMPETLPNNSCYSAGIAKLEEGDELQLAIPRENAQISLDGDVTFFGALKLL
T4 sequence (Q9Y275 134-285 limits assumed): as above

B1: B606401 (other)
heavy: EVQLVQSGAEVKKPGESLKISCKGSGYIFTNYWIAWVRQMPGKGLESMGIIYPGDSDIRYSPSFQGQVTISADKSITTAYLQWSSLKASDTAMYYCARHDIEGFDYWGRGTLVTVSSASTKGPSVFPLAPSSKSTSGGTAALGCLVKDYFPEPVTVSWNSGALTSGVHTFPAVLQSSGLYSLSSVVTVPSSSLGTQTYICNVNHKPSNTKVDKRVEPKSCDKTHTCPPCPAPEFEGGPSVFLFPPKPKDTLMISRTPEVTCVVVDVSHEDPEVKFNWYVDGVEVHNAKTKPREEQYNSTYRVVSVLTVLHQDWLNGKEYKCKVSNKALPASIEKTISKAKGQPREPQVYTLPPSRDELTKNQVSLTCLVKGFYPSDIAVEWESNGQPENNYKTTPPVLDSDGSFFLYSKLTVDKSRWQQGNVFSCSVMHEALHNHYTQKSLSLSPGK
light: EIVLTQSPGTLSLSPGERATLSCRASQSVSSSFFAWYQQKPGQAPRLLIYGASSRATGIPDRLSGSGSGTDFTLTITRLEPEDFAVYYCQQYDSSAITFGQGTRLEIKRTVAAPSVFIFPPSDEQLKSGTASVVCLLNNFYPREAKVQWKVDNALQSGNSQESVTEQDSKDSTYSLSSTLTLSKADYEKHKVYACEVTHQGLSSPVTKSFNRGECGGGGSGGGGSSTSCREEQGEFYDHLLRDCISCASICGQHPKQCAAFCE
notes: Fusion protein of anifrolumab and TACI-19-16 (C-terminus of the light chain)
EC50 [1]: 0.607 nM
Emax [1]: 2.81
Flow cytometry proliferating B cell proportion (%), mean value, APRIL-induced, drug at 4.12 nM (IgG1: 55.30) [2]: 52%
Flow cytometry proliferating B cell proportion (%), mean value, APRIL-induced, drug at 12.35 nM (IgG1: 54.80) [2]: 52.9%
Flow cytometry proliferating B cell proportion (%), mean value, APRIL-induced, drug at 37.04 nM (IgG1: 56.63) [2]: 53.6%
Flow cytometry proliferating B cell proportion (%), mean value, APRIL-induced, drug at 111.11 nM (IgG1: 55.83) [2]: 53.1%
Flow cytometry proliferating B cell proportion (%), mean value, APRIL-induced, drug at 333.33 nM (IgG1: 56.27) [2]: 50.6%
Flow cytometry proliferating B cell proportion (%), mean value, APRIL-induced, drug at 1000.00 nM (IgG1: 53.27) [2]: 40.3%
IC50 (nM), inhibition of the activity of type I interferons (IFN-beta, HEK-Blue IFN-alpha/beta reporter cells) (IFNAR1 [3]): 1.94 nM
IC50, inhibition of IFN-alpha-induced in vitro differentiation of B cells into plasma cells (CD27+ CD38+) (IFNAR1 [4]): 17.4 nM
Flow cytometry proliferating B cell proportion (%), mean value, BAFF-induced, drug at 10 nM (IgG1: 40.15) [5]: 28.1%
Flow cytometry proliferating B cell proportion (%), mean value, BAFF-induced, drug at 100 nM (IgG1: 40.60) [5]: 25.3%
Flow cytometry proliferating B cell proportion (%), mean value, BAFF-induced, drug at 1000 nM (IgG1: 33.97) [5]: 17.9%
CD27+ CD38+ plasma cell count, mean value, BAFF + APRIL-induced (both ligands together), drug at 10 nM (IgG1: 2687) [6]: 654 cells
CD27+ CD38+ plasma cell count, mean value, BAFF + APRIL-induced (both ligands together), drug at 100 nM (IgG1: 2496) [6]: 549 cells
CD27+ CD38+ plasma cell count, mean value, BAFF + APRIL-induced (both ligands together), drug at 1000 nM (IgG1: 2279) [6]: 426 cells
CD27+ CD38+ plasma cell count, mean value, BAFF + APRIL-induced (both ligands together), drug at 100 nM (IgG1: 2496) [7]: 549 cells
CD27+ CD38+ plasma cell count, mean value, BAFF + APRIL-induced (both ligands together), drug at 1000 nM (IgG1: 2279) [7]: 426 cells

B2: TACI-12-Fc (Fc fusion)
chain: SLSCRKEQGKFYDHLLRDCISCASICGQHPKQCAYFCEDKTHTCPPCPAPEAEGAPSVFLFPPKPKDTLMISRTPEVTCVVVDVSHEDPEVKFNWYVDGVEVHNAKTKPREEQYNSTYRVVSVLTVLHQDWLNGKEYKCKVSNKALPSSIEKTISKAKGQPREPQVYTLPPSRDELTKNQVSLTCLVKGFYPSDIAVEWESNGQPENNYKTTPPVLDSDGSFFLYSKLTVDKSRWQQGNVFSCSVMHEALHNHYTQKSLSLSPGK
notes: TACI-9 truncated C-terminally by 3 amino acids, fused directly to Fc
EC50 [8]: 0.894 nM
IC50 [9]: 3.86 nM

B3: TACI-10-Fc (Fc fusion)
chain: SLSCRKEQGKFYDHLLRDCISCASICGQHPKQCAYFCENKDKTHTCPPCPAPEAEGAPSVFLFPPKPKDTLMISRTPEVTCVVVDVSHEDPEVKFNWYVDGVEVHNAKTKPREEQYNSTYRVVSVLTVLHQDWLNGKEYKCKVSNKALPSSIEKTISKAKGQPREPQVYTLPPSRDELTKNQVSLTCLVKGFYPSDIAVEWESNGQPENNYKTTPPVLDSDGSFFLYSKLTVDKSRWQQGNVFSCSVMHEALHNHYTQKSLSLSPGK
notes: TACI-9 truncated C-terminally by 1 amino acid, fused directly to Fc
EC50 [8]: 0.561 nM
IC50 [9]: 2.7 nM

B4: TACI-11-Fc (Fc fusion)
chain: SLSCRKEQGKFYDHLLRDCISCASICGQHPKQCAYFCENDKTHTCPPCPAPEAEGAPSVFLFPPKPKDTLMISRTPEVTCVVVDVSHEDPEVKFNWYVDGVEVHNAKTKPREEQYNSTYRVVSVLTVLHQDWLNGKEYKCKVSNKALPSSIEKTISKAKGQPREPQVYTLPPSRDELTKNQVSLTCLVKGFYPSDIAVEWESNGQPENNYKTTPPVLDSDGSFFLYSKLTVDKSRWQQGNVFSCSVMHEALHNHYTQKSLSLSPGK
EC50 [8]: 0.584 nM
IC50 [9]: 2.62 nM
